Consider 17 sequences from the DeepSol protein solubility set.

The nature of this data set: soluble on expression in E. coli; label from the status in PepcDB or PDB records.
For the sequence “MGSDKIHHHHHHMVNLMNINSHYLHNNSHECVSLSVRSKGTTQCPDIKVTQKAHIELGTLATPQLVRRRSGRYTIRLRLKGHAKPFISVSTRTTNRSIAVMRQKELATTAKAFLLDNPEVSKEELREHLKAMAEWLLTEATDDYWNGLDIAWLEDAKVNLRNIAATERLSAVQQTHIVESLKVLEAGQKRVDYGDATGLLDFVADDNTDSANNHTQGSTIGVLSSNLENQQGGSSSVFTYDDLVSMTLAEKITTLATSSYRDLQSSFSTVRGYAPVDLMDRSAWLKARDELLANGKAAITVNKLFVKVRMAIDYALMNGHLQGRNPIEKMKLTKDAESKRRAMTDEEIQMVLKAAESAPEARRWAVLVSIITGARSAEVAQLTKENIVVVDGITCIDINDDEGKKVKNKHSIRLIPLIDGAYGFNLEAFLKFVNTREPKTAIFGMTAGTYTAYFGRSIKGSIDALKDTKNVCMHSLRHSLTGKLKAAGVPLADAQGVLGHSSQSITYDLYGKGHAIGRLSDALRLALSGTGQ”, the “soluble on expression in E. coli” value is recorded as “not soluble”.

In the case of “FLQNAVILGATENGLRLAEYLLEHQDIRSGVIGFIDDRIGRMPKTVANLPLLGNTSDLERLIREEKVTQVLVALPWTAENRMDYIIRELRRLPVNVLLVPDMIAFRHT”, the “soluble on expression in E. coli” value was “not soluble”. In the case of “MGSDKIHHHHHHMSQVNALQLTGISKSFDGFKALIDADFTACWGEVHALLGENGAGKSSLMNIAAGLYAPETGTLMLDDNPVQLQGPKDASRYRIGMVHQHFKLVKPFTVAQNILLALPEQPGEGSYRKRLRMLERDIVRKAEELGFAIDPSRVVDSLSVAEQQRVEILKVLLAGARILILDEPTAVLTDQEAERLLLTVQAFARQGAAVILVTHKMADVKRYADRVTVMRGGRTIQTLDPQRVSVEQLVQLTVGESVPVAAHHPAVPGEVRLQVKDLRSVGGSALNGVNMTLRAGQIYGIAGVGGNGQAELANALMGLPQATEGDIHLAPFGDLRNASAEQRRQLRIASIPADRYGAALAGSLSVAENFGIGNIHSGHYGSFWRLGYKRLKQDAQRAVESFDVQGVRSLDQKAALLSGGNAQKLVIAREFSRDPQLVLVHSPSRGLDVRATQAVHDRLRAARDAGAAVLLISEDLDEVLALADRIGVMNGGRIVAEFDHPADRQAIGKAMVSHD” it was “not soluble”; in that of “MTLNKTDRIVITLGKQIVHGKYVPGSPLPAEAELCEEFATSRNIIREVFRSLMAKRLIEMKRYRGAFVAPRNQWNYLDTDVLQWVLENDYDPRLISAMSEVRNLVEPAIARWAAERATSSDLAQIESALNEMIANNQDREAFNEADIRYHEAVLQSVHNPVLQQLSIAISSLQRAVFERTWMGDEANMPQTLQEHKALFDAIRHQDGDAAEQAALTMIASSTRRLKEIT”, “not soluble”. In the case of “MSRDGQNGTATFYFDEPQALVGEVRQDITGMYLLDDEGELATREVKAKFINGQPAGLEAVYLMRSPEEWDRFMRFMQRYAEANGLGFTEALEHHHHHH” it was “not soluble”; in that of “MTLTVAAPCVQTVTEPSKMEMQAESTSHITIRFTEMVGDAQKPTYGSISSAGADLYSAEDVVVPANGKLCVSTGLQIELPIGYYGRVAPRSGLAAKHFIDVGAGVIDSDYRGEVKVLLFNFNTTAFEVKTGDRIAKLICEQIGNGTYEEVKSLPSTNRGAGGFGSTGESTMNSETANPATNLERITVRFTQLNENAQTPTYGSEEAAGADLYSAEDITVPAHGKCCVSTGIQMELPFGYYGRVAPRSGLAAKHFIDVGAGVIDSDYRGEVKVLLFNFTDNAFEVKKGDRIAQLICEKIGHCVYEAASELENTDRGAGGFGSTGQNTMEAEPALKKSKTEQIKTSATSVTIQITKSNDNAQMPTYGSAEAAGADLYSAEDVTVPARGKLCVSTGIQMALPIGYYGRVAPRSGLAAKHFIDVGAGVIDSDYRGEVKVLLFNFGENDFEVKKGDRIAQLVCEQIALCTYSKVESLEVTERGAGGFGSTGQYITL”, “not soluble”. Consider “MRRGPARAAALHRAFSLHGKIAAMQRPASSSLPPLDPAASAHSASVARHLRAAIAAAGGWLPFSQWMSAALYAPGLGYYTAGATKLASPADAQGPALPAGDFVTAPELTPLFAATVARQIAQVLRATDTASVLEFGAGTGALAEGVLRALAGLDCPARYLIVEVSADLRQRQQSRLAPFGDRVQWLDQLPDAFAGCVLGNEVLDAMPATLFRWSETGVVQERGVTVDANGEFAWQDRDADAPLAQAVAQRMPPLPGYVSEINLQAEAWVRSMGLWLQRGAALLLDYGFPRSEYYHPQRAGGTLMCHLRHHAHADPFAAPGLQDITSHVDFTAMADAALAGGLQVLGYLSQARFLVNAGLLDALSQLDPADARAYAQAVAPVQKLLSEAEMGELFKVLAVGRDMPEPLLGFARGDRRGTL”, for which the “soluble on expression in E. coli” value was “not soluble”. The value for “MATLIYVDKENGEPGTRVVAKDGLKLGSGPSIKALDGRSQVSTPRFGKTFDAPPALPKATRKALGTVNRATEKSVKTKGPLKQKQPSFSAKKMTEKTVKAKSSVPASDDAYPEIEKFFPFNPLDFESFDLPEEHQIAHLPLSGVPLMILDEERELEKLFQLGPPSPVKMPSPPWESNLLQSPSSILSTLDVELPPVCCDIDILEHHHHHH” was “not soluble”. The value for “MSLASLIGLAVCTGNAFSPALAAEAKQPNLVIIMADDLGYGDLATYGHQIVKTPNIDRLAQEGVKFTDYYAPAPLSSPSRAGLLTGRMPFRTGIRSWIPSGKDVALGRNELTIANLLKAQGYDTAMMGKLHLNAGGDRTDQPQAQDMGFDYSLANTAGFVTDATLDNAKERPRYGMVYPTGWLRNGQPTPRADKMSGEYVSSEVVNWLDNKKDSKPFFLYVAFTEVHSPLASPKKYLDMYSQYMSAYQKQHPDLFYGDWADKPWRGVGEYYANISYLDAQVGKVLDKIKAMGEEDNTIVIFTSDNGPVTREARKVYELNLAGETDGLRGRKDNLWEGGIRVPAIIKYGKHLPQGMVSDTPVYGLDWMPTLAKMMNFKLPTDRTFDGESLVPVLEQKALKREKPLIFGIDMPFQDDPTDEWAIRDGDWKMIIDRNNKPKYLYNLKSDRYETLNLIGKKPDIEKQMYGKFLKYKTDIDNEGHHHHHH” was “not soluble”; that for “MGSDKIHHHHHHMTDSTTLYPVFAEELLPGGGHRSFILKRGELLRLTDLNGNANVSLTLLNAHEKTERLNLPDSLKCQHTAKLSNGHCLYSDMGRVLAAIVTDTCGWSDSIGGVLNAQEVAEKYGQGRYQELRNGFFRNGVDNLLVELGKWGLGLSDLLMTLNLFSRVDVSETGTLHFAPNNSKAGDYIELYAPMDTLVVLTALQHPMDPNPDYVPQPLTLSWMKADASVAEHCRTSRPENERGFINTDRLFA” was “not soluble”.

Consider “SALSSAASLLGSPLTNDFAVISMSDLLTPLDTIMKRVEAFAKADIVTVIYNPRGSRFPDNIRKAVDIFLRYRNPETAVGIVRNAYRERQSVTITTLSNLNIEDIDMLTTVIIGNSETF”, for which the “soluble on expression in E. coli” value is given as “not soluble”. The value for “MKDNRITVTDIPNTNLKKITLKNDFLEVVLLNYGARLHQLLMPNKNNHWENILLSYDSYQDVLKDQSFFGATVGPVAGRIRNGHWQNGILEQNSDGHHIHGGSKGWSFQYWTVEPFEKKDIIGVAFHLTDTISGYPGPIEATITYQLEDNHLRMISTGRSKQETLFNPTNHAYFNLSGDGKLDILSHLLSLNCQGMLELDDNKLPTGRILPASELSIRFNELTPIETILQRYPTGLDDVFSLVGSDLRQPQLCLQEPTSGRKMTIATTNQSMVLFSTTGFEAPFSINGQAMHSNYGLAIEPQEYPDIVHHPQWGSILLPANKKQTYQTVYQFNLL” was “not soluble”; that for “MSLKITSISVQQKNKERYNIFIDEKYNFSVDEEVLARYQLMKGKTLTEADIEEIKQADMVRKGLNKAINFLSHRVRSEKEIRDYLRKQEMEPFAVDEILKKLADMDYINDVEFAELYTKTQIKTTLKGPRTIERELVEKGLTREIISQVMEEYASDIQLENATKQAMKIMKRNNKSAKKMLQQKIITDLIQKGYSSEVAKMAAIEATSELDVADEADILQKQVEKTIRKNKRYKPSIAKQKTITSLMQKGFSYDTIQSYLTENEISEGHHHHHH” was “not soluble”.

With “MGSDKIHHHHHHMNSSLQVGIGIDVGSSSARIGVYNYYNDALLEMAQEPVPYYQDSSKKSWKFWQKSTEIIKALQKCLQKLNIREYEVKSCGVSATCSLAIFERDRTSNMLIPYPNEDNVIFWMDSSAVNECQWLNMQCPQQLLDYLGGKFVPEMGVPKLKYFLDEYSHLRDKHFHIFDLHQYIAYELSRLYEWNIEGLLGRENLNGIGNDGEVSGWSSSFYKNIINLPSNVSIGTTSLVANKHISTTVVRSCIDSYASWFAVASPHLETSLFMIAGTSSCYMYGTTISDTRIPGVWGPFDTILDNRGDFSVYAAGQSCTGKLIEHLFESHPCARKILKDGADIYQVLEQTIRDIEKNNGLSIHILTKDMFFYGDYEGNRTPFADPRIKGSFIGESTDTSMLNLTYKYICILEFLSFQTKLIIDTFQNENSNIHIKELRISGSQAKNERLLSLISLVNNGVAIIKPKENVDMMGIKGAYVLAKSAKEKKQLADVITERDISNDSEKFESLAEYRLGNDSILLRKLLCVKYHIHLDMAKQQKRYHKLVDEVFQHL”, the “soluble on expression in E. coli” value is “not soluble”. As for “MRELQADFVKPARIDILLDMPPASRDLQLKHSWNSEDRSLNIFVKEDDKLTFHRHPVAQSTDCIRGKVGLTKGLHIWEIYWPTRQRGTHAVVGVCTADAPLHSVGYQSLVGSTEQSWGWDLGRNKLYHDSKNCAGVTYPAILKNDEAFLVPDKFLVALDMDEGTLSFIVDQQYLGIAFRGLRGKKLYPIVSAVWGHCEITMRYIGGLDPEPLPLMDLCRRTIRQKI”, the “soluble on expression in E. coli” value is listed as “soluble”. The value for “MAHHHHHHMQGTGSAKSFLEKLKSGRTTSAAIDNNAPPDGDGVILRRVERQYASEPLSALGLKLTEDAEVLSTEVGSPAAKSNIPLHYMIIAVNNQFVGSRADFEDIAAQLLTLVIKLQSTAAMSELLANILNEEEKNFNENGDSCIDVNELLRTTPRYGFLSAEHPMFLRWNQRLQTQREARQLIRQATREAEEQQAKEALEALRRVADAEDEIQQQQAQQERQHQQMLRQGPETVNPSAPEAGARPGGEVLLKQVQDESTFGESNVNNEGFEESPEEASPEELLKLIGAEPVETEVVQHVDADEPTEVRFFINPTEEYALSNGTRVTISVKKRSGPIPKPPPGKPPKGIEKADDKQAQ” was “not soluble”; that for “ATDKRLLGNTAIIGQSGSGKTVLLGFLLAQAQKFKPTTVVFDKDRGMEIAIRAMGGRYLTFKPGRQSGFNPFQLPPTQDNLTFLKQFVKKLAEASSEITHRDEEEINQAVMSIMSSNINPSLRRLSFLLQFLPNPHLNDYNSHPSVHTRLIKWCEGGDYGWLFDNPTDALDLSTHQIYGFDITEFLDNPETRTPVMMYLLYRTEGMISGQRFMYIFDEFWKPLQDPYFEDLAKNKQKTIRKQNGIFVFATQEPTDALESNIAKTLIQQCATYIFLA” was “not soluble”.
